This note sets out measurements from patent publication US20210093714A1, “Combination and method for inhibiting the cancer cells” (NATIONAL TAIWAN UNIVERSITY, priority 2013, published 2021).

The test system of assay [1] is lung adenocarcinoma cell line, CL1-5. The assay is described as follows: In vivo anoikis, high-frequency ultrasonic imaging, s.c. CL1-5. To be noted: nude mice, rCCN2 i.p. 1 mg/kg per day, FIG. 5F. From the text: Mice were anesthetized with isoflurane inhalation, and biofluorescence images were photographed with a CCD camera (IVIS; Xenogen Corporation, Caliper Life Sciences, Hopkinton, Mass., USA) at specific times. Imaging times ranged from 1 to 60 s, depending on the amount of fluorescence activity. Biofluorescence from the region of interest (ROI) was defined manually, and the data were expressed as photon flux (photons/s/cm^2/steradian). Background photon flux was defined using an ROI from a mouse that was not given an […]. injection of cancer cells. All biofluorescence data were collected and analyzed using IVIS. Celltracker dye was purchased from Molecular Probes, Invitrogen Corporation.
Next, the effect of rCCN2 on anoikis in the lung adenocarcinoma cell line, CL1-5, (in vivo) was observed by high-frequency ultrasonic imaging, the results shown in FIG. 5F(top right indicated as the amplification view of the yellow squares). In this embodiment, the lung adenocarcinoma cell line, CL1-5, was injected into the s.c. region of nude mice and the mice was treated i.p. either with rCCN2 (1 mg/kg per day) or a control solution (citrate buffer), and anoikis in the lung adenocarcinoma cell line, CL1-5,(in vivo) was observed by high-frequency ultrasonic imaging.

For assay [2], the system named is CL1-5 lung adenocarcinoma cell lines. Nature of the assay: MTT Assay, cell survival of CL1-5, rCCN2 and cetuximab. Type of assay: cell-based, human. The conditions noted are these: attached CL1-5; rCCN2 alone 0 to 200 ng/mL; FIG. 8F.

B1: Connective tissue growth factor (CCN2), wild-type full length (ligand, human, UniProt P29279 27-349, looked up)
chain: QNCSGPCRCPDEPAPRCPAGVSLVLDGCGCCRVCAKQLGELCTERDPCDPHKGLFCHFGSPANRKIGVCTAKDGAPCIFGGTVYRSGESFQSSCKYQCTCLDGAVGCMPLCSMDVRLPSPDCPFPRRVKLPGKCCEEWVCDEPKDQTVVGPALAAYRLEDTFGPDPTMIRANCLVQTTEWSACSKTCGMGISTRVTNDNASCRLEKQSRLCMVRPCEADLEENIKKGKKCIRTPKISKPIKFELSGCTSMKTYRAKFCGVCTDGRCCTPHRTTTLPVEFKCPDGEVMKKNMMFIKTCACHYNCPGDNDIFESLYYRKMYGDMA
notes: also called Recombinant CCN2; exogenous CCN2
For the molecule B1, the anoikis in vivo entry in assay [1] is given as “clearly appeared anoikis”. Further, the cell survival entry in assay [2] is recorded as “not significantly reduced”.
